For 1 molecule, FRET/P301S spinal cord immunodepletion assay, 300 nM antibody (% of negative control), blocking of aggregate induction (FRET assay) and inhibition of K18 aggregate induction, FRET/P301S spinal cord co-incubation assay, 300 nM antibody (% of negative control) results are on record in patent publication US20230047413A1.

The target in the test is tau seeds from spinal cords of P301S transgenic animals (human), P10636. In words: cell-based or functional assay.
tau seeds from spinal cords of P301S transgenic animals (human), P10636, sequence (P10636 other isoform, or with tags, fused parts or gaps P301S P301S): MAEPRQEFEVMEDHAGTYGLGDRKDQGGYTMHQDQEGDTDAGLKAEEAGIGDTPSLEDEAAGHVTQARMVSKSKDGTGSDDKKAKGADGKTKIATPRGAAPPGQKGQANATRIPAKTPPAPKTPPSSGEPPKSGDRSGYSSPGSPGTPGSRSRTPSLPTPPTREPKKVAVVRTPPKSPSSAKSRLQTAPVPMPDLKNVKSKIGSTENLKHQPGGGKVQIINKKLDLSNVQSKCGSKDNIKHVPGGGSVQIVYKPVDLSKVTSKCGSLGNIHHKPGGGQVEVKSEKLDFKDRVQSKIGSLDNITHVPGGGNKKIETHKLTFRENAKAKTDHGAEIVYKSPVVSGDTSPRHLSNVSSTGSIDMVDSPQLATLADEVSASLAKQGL

B1: PT3 (mouse-hybridoma-derived antibody) (antibody, V domains shown)
VH: EVKLVESGGDLVKPGGSLKLSCAASGFTFSSYAMSWVRQNPEKRLEWVASISKGGNTYYPNSVKGRFTISRDNARNILYLQMSSLRSEDTALYYCARGWGDYGWFAYWGQVTLVTVSA
VL: DIKMTQSPSSMYASLGERVTITCKASQDINRYLNWFQQKPGKSPKTLIYRANRLLDGVPSRFSGSGSGQDYSLTISSLDYEDMGIYYCLQYDEFPLTFGDGTKLELK
modifications: here or on the partner: aggregated
As for B1, the FRET/P301S spinal cord immunodepletion assay, 300 nM antibody (% of negative control) is 96.2; the blocking of aggregate induction (FRET assay) at 3 nM is 30.7%; the blocking of aggregate induction (FRET assay) at 30 nM was 37%; the inhibition of K18 aggregate induction, FRET/P301S spinal cord co-incubation assay, 300 nM antibody (% of negative control) was 34.
